# Test results published in paper PMC11271267.
# Target: MetCb purified individually (Aminobacter sp. strain NyZ550)
# Test: not stated; purified MetCb alone in solution; experiment not described
substance,measurement,value
MetCb purified individually (natural protein),stoichiometry N,6
